# Laboratory results reported in patent US20020147306A1, “Peptides that modulate the interaction of B class ephrins and PDZ domains” (priority 1998, published 2002).
# Tests used:
# Assay in all cases: fluorescence polarization, 25 nM fluorescein-labelled peptide, GST fusion titrated, 22 C
# [1] = target: fluorescein-labelled NIYpYKV peptide
# [2] = target: fluorescein-labelled NIYYKV peptide
# [3] = target: fluorescein-labelled NIpYYKV peptide
# [4] = target: fluorescein-labelled NIpYpYKV peptide
# Chain of GST-FAP-1 PDZ5 fusion protein (P08515 whole entry, the tested form may be a part): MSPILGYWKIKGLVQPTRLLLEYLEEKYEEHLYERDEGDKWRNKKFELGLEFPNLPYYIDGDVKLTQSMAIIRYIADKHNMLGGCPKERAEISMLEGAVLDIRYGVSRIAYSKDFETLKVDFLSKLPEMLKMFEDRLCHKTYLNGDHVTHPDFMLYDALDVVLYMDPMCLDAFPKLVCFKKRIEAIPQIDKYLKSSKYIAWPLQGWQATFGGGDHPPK
Kd [1] [µM],Kd [2] [µM],Kd [3] [µM],Kd [4] [µM],Substance
15.4,9.9,6.8,8.4,GST-FAP-1 PDZ5 fusion protein (from UniProt P08515 1-218)
–,65,–,–,GST-FAP-1 PDZ3 fusion protein (from UniProt Q12923 1368-1452)
